Test results as given in publication PMC5843810 (EJNMMI Radiopharmacy and Chemistry, 2016).
Bridges are numbered along the chain shown (N, C = ends). [ ]: non-standard residue; d: D form. Ahx = NCCCCCC(=O)O; βAla = NCCC(=O)O

What was measured:
[1] = molecular target: T1, MC1R (mouse (endogenous in B16/F10), UniProt Q01727 1-315); experiment: radioligand binding; receptor affinity (Kd) of the 99mTc-labelled peptide; B16/F10 melanoma cells are the only cells named; conditions: one partner purified
T1 construct: also called MCR1R

[2] = molecular target: T1, MC1R; experiment: radioligand binding; MC1R binding affinity (Ki) of the unlabelled peptides determined in B16/F10 melanoma cells; the competing ligand is not named; conditions: one partner purified

T1 sequence (Q01727 whole entry): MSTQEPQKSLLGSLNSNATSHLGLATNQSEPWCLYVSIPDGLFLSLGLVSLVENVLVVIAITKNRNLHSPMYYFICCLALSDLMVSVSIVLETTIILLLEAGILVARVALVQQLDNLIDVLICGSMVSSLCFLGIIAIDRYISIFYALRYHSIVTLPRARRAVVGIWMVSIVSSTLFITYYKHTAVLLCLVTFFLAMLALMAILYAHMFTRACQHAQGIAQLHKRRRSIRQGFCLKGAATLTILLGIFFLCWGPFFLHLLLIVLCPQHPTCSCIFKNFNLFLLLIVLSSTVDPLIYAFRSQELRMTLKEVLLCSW

B1: [99mTc(N)(NAP-NS1)(PNP3)]+ (peptide)
chain: CXXXDHFRWG
modifications: Ahx at 2, βAla at 3, Nle at 4 (each written X); D-Phe at 7; C-terminal amide; [99mTc(N)(PNP3)] label (PNP3 = N,N-bis(dimethoxypropylphosphinoethyl)methoxyethylamine)
B1 gave a Kd [1] of 7.1 ± 0.5 nM.

B2: NAP-NS1, linear H-Cys-Ahx-βAla-Nle-Asp-His-D-Phe-Arg-Trp-Gly-NH2 (peptide)
chain: CXXXDHFRWG
modifications: Ahx at 2, βAla at 3, Nle at 4 (each written X); D-Phe at 7; C-terminal amide
B2 was tested, and the Ki [2] was 0.9 ± 0.3 nM.

B3: NAP-NS2, lactam bridge-cyclized H-Cys-Ahx-βAla3-c[Lys4-Glu-His-D-Phe-Arg-Trp-Glu10]-Arg11-Pro-Val-NH2 (peptide)
chain: H-C[Ahx][βAla]KEH[dF]RWERPV-NH2
modifications: lactam 4-10
SMILES: CC(C)[C@H](NC(=O)[C@@H]1CCCN1C(=O)[C@H](CCCNC(=N)N)NC(=O)[C@@H]1CCC(=O)NCCCC[C@H](NC(=O)CCNC(=O)CCCCCNC(=O)[C@@H](N)CS)C(=O)N[C@@H](CCC(=O)O)C(=O)N[C@@H](Cc2c[nH]cn2)C(=O)N[C@H](Cc2ccccc2)C(=O)N[C@@H](CCCNC(=N)N)C(=O)N[C@@H](Cc2c[nH]c3ccccc23)C(=O)N1)C(N)=O
With B3 the Ki [2] was 7.1 ± 2.4 nM.
